In the supplement of paper PMC10567573:

B1: FOXJ1 (parent)
chain: SAIYKWITDNFCYFRHADPTWQNS

Variants of: B1
Experiment: protein stability index of a GFP-peptide fusion (GPS, HEK-293T) (PSI 1-6); higher = more stable
Details: c terminus: a fixed tail appended
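Further: lentivirally expressed fusions sorted by FACS into six bins by GFP to DsRed ratio, PSI derived from sequencing read proportions per bin multiplied by bin number.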

Protein stability index of substitutions, site by site:
I7: C 1.84 | T 1.66 | L 2.9 | P 2.1 | N 1.93 | S 2.81 | H 1.6 | Q 1.36 | G 2.4 | D 2.27 | K 1.74 | R 1.79 | A 2.02 | V 2.81 | Y 1.86 | E 2.3 | M 3.88
F11: C 2.68 | H 2.71 | P 1.79 | N 2.05 | L 3.24 | E 1.89 | G 1.96 | Y 3.4 | T 2.83 | V 3.51 | S 3.59 | R 3.03 | W 2.53 | Q 2.21 | M 3.18
A2: Q 2.49 | R 2.52 | L 2.45 | Y 2.04 | E 1.44 | K 2.72 | I 3.56 | N 2.25 | V 2.4 | C 3.04 | F 4.1 | P 3.53 | G 2.87
Y13: Q 1.57 | G 3.62 | H 3.23 | E 1.03 | V 3 | K 1.86 | C 2.83 | L 1.87 | S 2.2 | F 2.47 | D 1.8 | M 2.87 | T 2.96 | A 3.53 | R 1.8 | P 2.18
W21: G 2.24 | I 3.5 | N 3.38 | P 1.99 | H 2.11 | F 1.85 | V 3.94 | E 3.54 | K 3.58 | M 3.42 | T 4.47 | R 2.27 | S 1.61 | C 2.94 | D 2.94 | A 3.28 | Q 2.9
A17: N 3.14 | K 2.1 | P 3.54 | C 3.02 | S 2.61 | I 2.91 | G 1.74 | M 4.41 | H 3.05 | Y 2.86 | Q 2.7 | T 2.16
Q22: C 3.38 | W 1.86 | G 2.93 | H 3.75 | D 2.56 | M 3.06 | S 4.33 | E 2.19 | N 4.82 | P 3.76
K5: Q 2.99 | Y 3.64 | I 3.27 | L 2.73 | W 2.78 | M 3 | F 2.91 | E 1.81 | S 3.33 | A 2.97 | H 3.79 | C 2.24 | G 3.71 | R 3.05 | T 2.46 | P 1.26 | D 3.42
P19: I 3.63 | E 3.59 | Q 3.21 | M 4.18 | A 3.17 | V 3.02 | L 1.54 | D 1.69 | R 3.65 | S 2.63 | G 2.04 | W 2.35 | N 2.77 | T 4.32 | C 2.7
N10: I 2.79 | T 2.05 | L 3.56 | E 2.62 | W 2.06 | H 2.3 | Y 3.33 | K 2.34 | R 2.2 | Q 2.11 | P 2.13 | M 2.89 | C 2.08 | G 1.42
F14: I 4.22 | N 2.14 | S 2.13 | C 3.92 | Y 2.97 | R 1.75 | A 2.32 | W 2.73 | D 2.64 | V 3.33 | K 2.58 | E 2.23 | H 2.56
R15: D 2.25 | P 2.53 | T 1.69 | I 2.32 | L 2.95 | Y 2.33 | C 3.16 | H 5.96 | A 1.81 | G 3.31 | E 4.29 | W 2.97 | S 2.76 | M 2.66
W6: I 3.22 | F 2.43 | G 1.67 | T 1.43 | K 1.22 | V 1.49 | M 3.3 | Q 2.07 | C 2.1 | A 1.66 | R 1.86 | N 2.71 | D 2.12 | Y 3.11 | P 2.13 | S 1.71 | H 2.2
S1: I 4.71 | T 3.01 | C 3.86 | K 3.58 | W 3.8 | G 3.32 | V 2.43 | A 3.31 | F 3.6 | N 2.5 | Y 2.05 | H 2.92 | M 3.02 | E 3.4 | Q 2.31 | D 3.17
D9: C 4.21 | G 3.51 | R 3.41 | S 3.04 | P 2.83 | Y 2.56 | E 3.89 | M 3.64 | L 2.65 | F 3.55 | I 4 | H 4.47
N23: S 2.62 | T 3.31 | G 4.27 | E 3.59 | H 4.01 | F 3.19 | A 2.99 | M 2.75 | C 2.97 | V 2.39 | K 2.13 | P 3.02 | Q 3.42 | W 3.47
T8: G 2.05 | Q 2.78 | P 1.86 | S 4.33 | M 3.27 | I 1.8 | R 2.51 | C 2.73 | N 3.01 | F 3.33 | D 3.49 | E 2.79 | V 2.13
C12: Y 3.81 | S 2.78 | V 2.69 | N 1.6 | E 1.95 | W 3.99 | L 3.4 | D 1.59 | G 2.61 | K 2.81 | F 2.67 | T 3.14 | P 1.97 | I 2.77 | R 1.81 | H 3.13 | Q 1.81 | A 2.57
T20: P 3.38 | R 3.92 | F 1.78 | I 2.42 | Y 2.55 | A 2.54 | S 3.35 | W 4.37 | C 3 | L 2.08 | D 2.67
I3: H 1.98 | W 2.41 | S 1.21 | E 1.67 | N 1.6 | R 1.78 | A 2.42 | V 3.81 | Y 3.11 | T 1.7 | M 3.21 | K 1.84 | Q 2.1
D18: M 3.77 | R 2.77 | E 3.65 | Y 2.95 | V 2.75 | S 3.4 | W 2.55 | L 2.74 | Q 2.86 | I 2.82 | N 3.12 | T 2.81 | F 1.9
Y4: F 2.59 | L 2.95 | H 2.58 | S 2.68 | W 2.97 | E 2.99 | D 2.24 | C 2.04 | Q 2.97 | N 2.71 | A 1.47 | I 2.52 | P 2.27
S24: R 2.43 | T 2.96 | E 2.97 | H 2.34 | M 2.55 | W 2.37 | K 2.17 | F 3.32 | N 3.76
H16: K 1.7 | P 3.62 | W 1.82 | S 3.5 | D 2.33 | G 2.72 | Y 2.27 | R 5.03 | I 1.75 | F 3.57 | A 2.55 | T 2.32
